Measured values reported in patent US20230242676A1 (KISOJI BIOTECHNOLOGY, published 2023).

Tests used:
SEQ ID NO 101 = target: T1, SEQ ID NO 101 (Homo sapiens (Human), UniProt P0DOX5 343-449 = IgG part); assay: co-expression of Chain A and Chain B vectors, SDS-PAGE and Western blot; heterodimer formation
T1 construct: also called Mutated CH3 domain of KB100 Chain B (mutations D399N, K439E, E357Q, T350V)
T1 constant: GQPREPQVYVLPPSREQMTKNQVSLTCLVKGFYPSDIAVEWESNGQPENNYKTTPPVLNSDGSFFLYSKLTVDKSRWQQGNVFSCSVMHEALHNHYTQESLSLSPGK

SEQ ID NO 95 = target: T2, SEQ ID NO 95 (Homo sapiens (Human), UniProt P0DOX5 343-449 = IgG part); assay: as above
T2 construct: also called Mutated CH3 domain of KB118 Chain B (mutations D399N); K439E
T2 constant: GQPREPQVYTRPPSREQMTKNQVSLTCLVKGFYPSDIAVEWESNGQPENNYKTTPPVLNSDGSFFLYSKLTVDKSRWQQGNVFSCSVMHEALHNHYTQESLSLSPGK

Binder	binding result (SEQ ID NO 101)	binding result (SEQ ID NO 95)
SEQ ID NO 100 (other, also called Mutated CH3 domain of KB099 Chain A (mutations D399N, K370E, E356Q, T350V)) constant: GQPREPQVYVLPPSRQEMTKNQVSLTCLVEGFYPSDIAVEWESNGQPENNYKTTPPVLNSDGSFFLYSKLTVDKSRWQQGNVFSCSVMHEALHNHYTQKSLSLSPGK	binds	
SEQ ID NO 102 (other, also called Mutated CH3 domain of KB105 Chain A (mutations D399N, K370E, E356Q, P352R)) constant: GQPREPQVYTLRPSRQEMTKNQVSLTCLVEGFYPSDIAVEWESNGQPENNYKTTPPVLNSDGSFFLYSKLTVDKSRWQQGNVFSCSVMHEALHNHYTQKSLSLSPGK		binds
SEQ ID NO 103 (other, also called Mutated CH3 domain of KB108 Chain A (mutations D399N, K370E, E356Q, P352E)) constant: GQPREPQVYTLEPSRQEMTKNQVSLTCLVEGFYPSDIAVEWESNGQPENNYKTTPPVLNSDGSFFLYSKLTVDKSRWQQGNVFSCSVMHEALHNHYTQKSLSLSPGK		binds
